Target: T1, IntC3 (mutant phage lambda integrase) (Enterobacteria phage lambda) (UniProt P03700)
T1 sequence: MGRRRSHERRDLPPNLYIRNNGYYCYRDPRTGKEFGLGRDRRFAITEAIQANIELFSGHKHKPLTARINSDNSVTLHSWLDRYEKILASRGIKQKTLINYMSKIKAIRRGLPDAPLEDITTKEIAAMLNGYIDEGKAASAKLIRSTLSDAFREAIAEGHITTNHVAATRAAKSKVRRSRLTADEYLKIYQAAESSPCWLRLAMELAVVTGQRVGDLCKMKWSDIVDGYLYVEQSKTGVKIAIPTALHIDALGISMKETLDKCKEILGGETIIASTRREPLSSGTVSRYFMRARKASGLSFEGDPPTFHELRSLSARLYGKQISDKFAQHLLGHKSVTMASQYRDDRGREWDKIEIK
Test: cell_activity
Conditions: E. coli MG1655-ISC, scIHF2 co-expressed, arabinose 70 min

Substance | activity (% recombination) (recombination with attL homologue) | activity (% recombination) (recombination with attB homologue)
21 bp attB homologue in pattPhae2(attL) | > 90 | –
121 bp attL homologue in pattPhae2(attL) | – | > 90

Source: patent US20240175038
